Test [1] addresses T1, human SEMA4D, full length, on CHO-K1 cells (CHO-K1 hSEMA4D) (human) (UniProt Q92854).
T1 sequence (looked up): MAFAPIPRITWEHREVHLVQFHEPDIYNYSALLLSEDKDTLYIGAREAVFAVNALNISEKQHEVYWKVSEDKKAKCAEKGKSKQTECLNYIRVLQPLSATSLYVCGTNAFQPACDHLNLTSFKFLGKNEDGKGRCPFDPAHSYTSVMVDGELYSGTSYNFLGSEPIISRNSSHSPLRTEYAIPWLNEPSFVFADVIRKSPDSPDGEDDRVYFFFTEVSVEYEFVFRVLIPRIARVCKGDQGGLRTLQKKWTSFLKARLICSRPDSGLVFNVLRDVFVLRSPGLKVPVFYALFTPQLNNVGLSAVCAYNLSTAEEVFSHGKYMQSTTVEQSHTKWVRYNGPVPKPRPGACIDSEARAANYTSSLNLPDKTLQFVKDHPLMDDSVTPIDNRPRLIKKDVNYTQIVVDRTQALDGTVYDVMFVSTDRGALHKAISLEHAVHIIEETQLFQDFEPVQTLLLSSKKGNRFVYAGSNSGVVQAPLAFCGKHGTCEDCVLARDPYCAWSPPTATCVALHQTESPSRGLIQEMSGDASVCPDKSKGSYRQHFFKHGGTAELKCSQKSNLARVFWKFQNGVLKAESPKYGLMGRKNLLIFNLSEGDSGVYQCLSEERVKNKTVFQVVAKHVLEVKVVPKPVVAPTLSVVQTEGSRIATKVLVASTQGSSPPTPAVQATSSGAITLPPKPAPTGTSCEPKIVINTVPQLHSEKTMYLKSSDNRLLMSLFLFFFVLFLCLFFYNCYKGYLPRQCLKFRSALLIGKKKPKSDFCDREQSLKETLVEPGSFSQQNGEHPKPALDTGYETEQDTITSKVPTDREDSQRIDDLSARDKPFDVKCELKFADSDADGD
The test can be described thus: FACS, CHO-K1 hSEMA4D cells; Ab 2.67 nM. In general terms: Flow cytometry measures light scatter and fluorescence of single cells or particles in a stream.

Test [2] concerns the target mouse SEMA4D, full length, on CHO-K1 cells (CHO-K1 mSEMA4D) (mouse) (UniProt O09126). Briefly: FACS, CHO-K1 mSEMA4D cells; Ab 0.0213 nM.
Test [3] shares this target. The test can be described thus: FACS, CHO-K1 mSEMA4D cells; Ab 0.534 nM.
The target of test [4] is T1, human SEMA4D, full length, on CHO-K1 cells (CHO-K1 hSEMA4D) (human). Briefly: FACS, CHO-K1 hSEMA4D cells; Ab 0.534 nM.
The target is the same in test [5]. Briefly: FACS, CHO-K1 hSEMA4D cells; Ab 0.000853 nM.
The target in test [6] is mouse SEMA4D, full length, on CHO-K1 cells (CHO-K1 mSEMA4D) (mouse) (UniProt O09126). Briefly: FACS, CHO-K1 mSEMA4D cells; Ab 0.00427 nM.
In test [7] the target is monkey SEMA4D, full length, on CHO-K1 cells (CHO-K1 cSEMA4D) (monkey). The test can be described thus: FACS, CHO-K1 cSEMA4D cells; Ab 2.67 nM.
For test [8] the target is unchanged. Briefly: FACS, CHO-K1 cSEMA4D cells; Ab 0.0213 nM.
For test [9], the target named is T2, biotinylated hSEMA4D ECD-His (human) (UniProt Q92854).
T2 sequence (chain, biotinylated with Biotin-X-X-NHS at a molar ratio of 8,1; sites not stated): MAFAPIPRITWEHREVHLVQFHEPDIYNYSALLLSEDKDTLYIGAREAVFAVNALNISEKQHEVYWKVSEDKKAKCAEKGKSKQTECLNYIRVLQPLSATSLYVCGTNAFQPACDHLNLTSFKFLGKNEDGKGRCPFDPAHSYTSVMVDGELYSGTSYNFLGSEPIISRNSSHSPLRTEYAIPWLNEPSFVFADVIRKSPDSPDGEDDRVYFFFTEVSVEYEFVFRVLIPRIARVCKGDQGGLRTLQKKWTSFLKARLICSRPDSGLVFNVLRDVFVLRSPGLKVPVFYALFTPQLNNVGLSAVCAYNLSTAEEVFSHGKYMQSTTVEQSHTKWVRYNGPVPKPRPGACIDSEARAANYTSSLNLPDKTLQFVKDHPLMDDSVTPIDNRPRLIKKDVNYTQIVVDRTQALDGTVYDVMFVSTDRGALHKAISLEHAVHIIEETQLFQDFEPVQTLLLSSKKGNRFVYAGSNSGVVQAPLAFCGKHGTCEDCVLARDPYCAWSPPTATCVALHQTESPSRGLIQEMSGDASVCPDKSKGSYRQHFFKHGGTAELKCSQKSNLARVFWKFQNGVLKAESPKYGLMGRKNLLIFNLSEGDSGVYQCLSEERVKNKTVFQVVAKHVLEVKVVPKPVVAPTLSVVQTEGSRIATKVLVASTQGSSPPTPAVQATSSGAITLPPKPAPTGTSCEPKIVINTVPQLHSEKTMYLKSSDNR
Briefly: FACS, blocking of biotinylated hSEMA4D ECD-His binding to 293F hPlexin B1 cells; Ab 66.7 nM.

In test [10] the target is mouse SEMA4D, full length, on CHO-K1 cells (CHO-K1 mSEMA4D) (mouse) (UniProt O09126). The test can be described thus: FACS, CHO-K1 mSEMA4D cells; Ab 0.000853 nM.
For test [11], the target named is monkey SEMA4D, full length, on CHO-K1 cells (CHO-K1 cSEMA4D) (monkey). The test can be described thus: FACS, CHO-K1 cSEMA4D cells; Ab 13.3 nM.
In test [12] the target is T1, human SEMA4D, full length, on CHO-K1 cells (CHO-K1 hSEMA4D) (human). The test can be described thus: FACS, CHO-K1 hSEMA4D cells; Ab 0.107 nM.
Test [13] deals with monkey SEMA4D, full length, on CHO-K1 cells (CHO-K1 cSEMA4D) (monkey). Briefly: FACS, CHO-K1 cSEMA4D cells; Ab 0.534 nM.
The target in test [14] is T1, human SEMA4D, full length, on CHO-K1 cells (CHO-K1 hSEMA4D) (human). The test can be described thus: FACS, CHO-K1 hSEMA4D cells; Ab 0.0213 nM.
Test [15] concerns the target hSEMA4D ECD-His (His-tagged human SEMA4D protein extracellular domain, Met22-Arg734) (human) (UniProt Q92854). Briefly: ELISA, coated hSEMA4D ECD-His; Ab 6.67 nM.

The record followed here is patent US20220073608A1.

Take Human IgG control (antibody): the MFI in test [1] was found to be 35.9; in [2], 24.1; in test [3], 23.7; in test [4] it was 37.4; in test [5] it was 37.2; in test [6], 23.7. The MFI in [7] is 33.3; in test [8], 31.6; in test [10], 25; in test [11], 86.7; in test [12], 38; in [13] it was 32.1. This substance also returned an MFI in test [14] of 38.2. Also, the MFI (residual ligand binding) in test [9] is 321.

Mouse IgG control (antibody): the MFI in [1] was determined as 35.6; in test [2], 30.5; in test [3], 29.5; in test [4], 36.5; in [5], 35.5; in [6], 30.1. The MFI in test [7] is 37.8; in test [8] it was 23.1; in test [10], 29.8; in [11], 65.6; in test [12], 36.1; in test [13], 24.9. In [14], the MFI came to 35.8. Also, the OD450 nm in [15] was determined as 0.533. In addition, the MFI (residual ligand binding) in [9] came to 471.
